Data from PMC12273567 (The Journal of Biological Chemistry, 2025).

Biological target: T1, recombinant His-tagged NRF2, full length (UniProt Q16236 1-605)
T1 sequence: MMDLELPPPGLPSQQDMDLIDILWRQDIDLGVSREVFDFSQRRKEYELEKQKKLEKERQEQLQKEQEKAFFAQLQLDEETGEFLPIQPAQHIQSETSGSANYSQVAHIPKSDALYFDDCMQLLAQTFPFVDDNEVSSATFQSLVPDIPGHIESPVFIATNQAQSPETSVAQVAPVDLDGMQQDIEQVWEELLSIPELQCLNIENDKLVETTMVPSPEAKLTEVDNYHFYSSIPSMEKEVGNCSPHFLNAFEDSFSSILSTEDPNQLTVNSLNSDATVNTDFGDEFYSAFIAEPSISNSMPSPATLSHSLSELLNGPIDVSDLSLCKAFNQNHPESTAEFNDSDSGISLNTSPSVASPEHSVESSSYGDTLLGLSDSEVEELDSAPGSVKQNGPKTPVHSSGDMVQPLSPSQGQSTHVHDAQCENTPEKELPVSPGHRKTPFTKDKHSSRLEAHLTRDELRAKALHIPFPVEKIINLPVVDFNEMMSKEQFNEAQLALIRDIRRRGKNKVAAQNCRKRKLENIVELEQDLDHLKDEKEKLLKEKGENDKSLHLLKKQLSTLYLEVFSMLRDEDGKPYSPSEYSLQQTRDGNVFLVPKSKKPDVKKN
Assay: MST

B1: recombinant αB-crystallin (natural protein)
chain: MDIAIHHPWIRRPFFPFHSPSRLFDQFFGEHLLESDLFPTSTSLSPFYLRPPSFLRAPSWFDTGLSEMRLEKDRFSVNLDVKHFSPEELKVKVLGDVIEVHGKHEERQDEHGFISREFHRKYRIPADVDPLTITSSLSSDGVLTVNGPRKQVSGPERTIPITREEKPAVTAAPKK
Kd: 859 ± 70.1 nM
